Patent US20230310631A1, “THERAPEUTIC USE OF GLUCAGON DERIVATIVE OR CONJUGATE THEREOF FOR LIVER DISEASE” (HANMI PHARM. CO., LTD., priority 2020, published 2023)
Bridge positions count the residues as written; N and C are the ends. Square brackets hold non-standard residues; d marks the D form. Ends that are not written are not given here. Aib = CC(C)(N)C(=O)O

Target: human glucagon receptor (human, UniProt P47871 26-477)
Assay: cell-based or functional assay

human glucagon receptor, sequence (P47871 26-477): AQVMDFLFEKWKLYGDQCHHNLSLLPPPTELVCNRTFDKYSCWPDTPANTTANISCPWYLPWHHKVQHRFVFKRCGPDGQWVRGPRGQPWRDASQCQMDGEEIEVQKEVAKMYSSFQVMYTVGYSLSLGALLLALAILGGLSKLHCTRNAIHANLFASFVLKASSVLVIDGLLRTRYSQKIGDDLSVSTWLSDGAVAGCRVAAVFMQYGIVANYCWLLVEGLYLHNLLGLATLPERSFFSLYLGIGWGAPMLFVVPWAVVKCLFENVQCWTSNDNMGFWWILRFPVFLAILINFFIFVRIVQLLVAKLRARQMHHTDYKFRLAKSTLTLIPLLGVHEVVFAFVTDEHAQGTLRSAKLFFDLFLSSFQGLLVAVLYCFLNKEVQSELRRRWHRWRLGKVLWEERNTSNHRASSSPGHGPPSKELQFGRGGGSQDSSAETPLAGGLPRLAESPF

| Binder | In vitro Activity (relative activity to SEQ ID NO: 1, %); cAMP assay, from EC50 [%] |
| --- | --- |
| HSQGTFTSDYSKYLDSCEAQDFVQWLMNT [glucagon derivative of SEQ ID NO: 5] | 0.3 |
| Y[Aib]QGTFTSDYSKYLDEKCAKEFVQWLMNT (not fully specified (bridges)) [glucagon derivative of SEQ ID NO: 11] | 4.6 |
| Y[Aib]QGTFTSDYSKYLCEKRAQDFVVWLMNT [glucagon derivative of SEQ ID NO: 15] | 1.1 |
| Y[Aib]QGTFTSDYSKYLDEKRCKEFVQWLMNT (lactam 16-20) [glucagon derivative of SEQ ID NO: 22] | 148 |
| Y[Aib]QGTFTSDYSKYLDEKCAKEFVQWLMNT (lactam 16-20) [glucagon derivative of SEQ ID NO: 21] | 57.8 |
| Y[Aib]QGTFTSDYSKYLDCRRAQVFVQWLMRT [glucagon derivative of SEQ ID NO: 16] | 4.2 |
| HSQGTFTSDYSKYLDSCDAQDFVQWLMNT [glucagon derivative of SEQ ID NO: 4] | < 0.1 |
| YSQGTFTSDYSKYLDSCEADDFVQWLMNT [glucagon derivative of SEQ ID NO: 7] | < 0.1 |
| HSQGTFTSDYSKYLDCERAQDFVQWLMNT [glucagon derivative of SEQ ID NO: 3] | 6.1 |
| Y[Aib]QGTFTSDYSKYLDSCDAQDFVVWLINT [glucagon derivative of SEQ ID NO: 9] | < 0.1 |
| Y[Aib]QGTFTSDYSCYLDSRRAQDFVQWLMNT [glucagon derivative of SEQ ID NO: 13] | 5.2 |
| HSQGTFTSDYSKYLDCDRAQDFVQWLMNT [glucagon derivative of SEQ ID NO: 2] | 0.6 |
| Y[Aib]QGTFTSDYSKYLDSCDADDFVVWLINT [glucagon derivative of SEQ ID NO: 10] | < 0.1 |
| Y[Aib]QGTFTSDYSKYLCEKRAKEFVQWLMNT (lactam 16-20) [glucagon derivative of SEQ ID NO: 19] | 12.1 |
| Y[Aib]QGTFTSDYSKYLDSCDAQDFVQWLINT [glucagon derivative of SEQ ID NO: 8] | < 0.1 |
| HSQGTFTSDYSKYLDSCEADDFVQWLMNT [glucagon derivative of SEQ ID NO: 6] | < 0.1 |
| Y[Aib]QGTFTSDYSKYLDCVRAQDFVQWLMRT [glucagon derivative of SEQ ID NO: 17] | 23.2 |
| Y[Aib]QGTFTSDYSKYLDSRRACDFRLWLMNT [glucagon derivative of SEQ ID NO: 18] | < 0.1 |
| Y[Aib]QGTFTSDYSKYLDEKRAKEFVQWLMNTC (lactam 16-20) [glucagon derivative of SEQ ID NO: 12] | 56.3 |
| Y[Aib]QGTFTSDYSKYLDECRAKEFVQWLMNT (lactam 16-20) [glucagon derivative of SEQ ID NO: 20] | 300 |
| Y[Aib]QGTFTSDYSKYLDCKRAKEFVQWLMNT (not fully specified (bridges)) [glucagon derivative of SEQ ID NO: 14] | 18.1 |

Second part, the binder after the results:

| In vitro Activity (relative activity to SEQ ID NO: 1, %); cAMP assay, from EC50 [%] | Binder |
| --- | --- |
| 40.8 | Y[Aib]QGTFVSDYSKYLDERRAKDFVQWLMNTC (lactam 16-20) [glucagon derivative of SEQ ID NO: 40] |
| 108 | YXQGTFTSDYSKYLDSRRAQDFVQWLMNT (X at position 2 = aminoisobutyric acid (Aib)) [glucagon derivative of SEQ ID NO: 33] |
| 46.9 | Y[Aib]QGTFTSDYSKYLDEKRAKCFVQWLMNT (lactam 16-20) [glucagon derivative of SEQ ID NO: 25] |
| 1 | W[Aib]QGTFTSDYSKYLDECRAKDFVQWLMNT (lactam 16-20) [glucagon derivative of SEQ ID NO: 26] |
| 75.4 | YXQGTFTSDYSKYLDSRRAQDFVQWLMNTC (X at position 2 = aminoisobutyric acid (Aib)) [glucagon derivative of SEQ ID NO: 44] |
| 93.6 | Y[Aib]QGTFVSDYSKYLDECRAKDFVQWLMNT (lactam 16-20) [glucagon derivative of SEQ ID NO: 27] |
| 167 | Y[Aib]QGTFCSDYSKYLDERRAKEFVQWLMNT (lactam 16-20) [glucagon derivative of SEQ ID NO: 38] |
| 226 | Y[Aib]QGTFTSDYSKYLDERRAKEFVQWLMNTC (lactam 16-20) [glucagon derivative of SEQ ID NO: 37] |
| 0.2 | W[Aib]QGTFTSDYSKYCDERRAKEFVQWLMNT (lactam 16-20) [glucagon derivative of SEQ ID NO: 34] |
| 58 | Y[Aib]QGTFTSDYSKCLDEKRAKEFVQWLMNT (lactam 16-20) [glucagon derivative of SEQ ID NO: 24] |
| 9.9 | Y[Aib]QGTFTSDCSKYLDERRAKEFVQWLMNT (lactam 16-20) [glucagon derivative of SEQ ID NO: 36] |
| 17.7 | Y[Aib]QGTFTSDYSKYCDERRAKEFVQWLMNT (lactam 16-20) [glucagon derivative of SEQ ID NO: 35] |
| 1.6 | Y[Aib]QGTFTSDCSKYLDSRRAQDFVQWLMNT [glucagon derivative of SEQ ID NO: 43] |
| 6.3 | Y[Aib]QGTFTSDYSKYLDCKRAKEFVQWLMNT (lactam 17-21) [glucagon derivative of SEQ ID NO: 31] |
| 61.3 | Y[Aib]QGTFTSDYSKCLDERRAKDFVQWLMNT (lactam 16-20) [glucagon derivative of SEQ ID NO: 29] |
| 76.8 | Y[Aib]QGTFTSDYSKYCDEKRAKEFVQWLMNT (lactam 16-20) [glucagon derivative of SEQ ID NO: 23] |
| 45.2 | Y[Aib]QGTFCSDYSKYLDERRAKDFVQWLMNT (lactam 16-20) [glucagon derivative of SEQ ID NO: 41] |
| 0.7 | SQGTFTSDYSKYLDECRAKEFVQWLMNT (lactam 15-19) [glucagon derivative of SEQ ID NO: 32] |
| 3.7 | Y[Aib]QGTFVSDCSKYLDERRAKDFVQWLMNT (lactam 16-20) [glucagon derivative of SEQ ID NO: 39] |
| 0.3 | W[Aib]QGTFTSDYSKCLDERRAKDFVQWLMNT (lactam 16-20) [glucagon derivative of SEQ ID NO: 30] |
| < 0.1 | W[Aib]QGTFVSDYSKYLDECRAKDFVQWLMNT (lactam 16-20) [glucagon derivative of SEQ ID NO: 28] |
| 37.9 | Y[Aib]QGTFCSDYSKYLDSRRAQDFVQWLMNT [glucagon derivative of SEQ ID NO: 42] |
| 5.2 | Y[Aib]QGTFTSDYSCYLDEKRAKEFVQWLMNT [glucagon derivative of SEQ ID NO: 45] |
